Reference: patent US20250129173A1 (SHENYANG SUNSHINE PHARMACEUTICAL, published 2025)
Where “and” joins values, the source holds several entries; their conditions need not be identical. Equal entries are not always repeated.

Columns and labels:
[1] = target: T1, recombinant human PRLR-ECD protein (Acro, item No. PRR-H52Ha) (human, UniProt P16471 25-234); assay: indirect ELISA, coated human PRLR-ECD
T1 construct: Bought protein; also called PRLR-His
T1 sequence: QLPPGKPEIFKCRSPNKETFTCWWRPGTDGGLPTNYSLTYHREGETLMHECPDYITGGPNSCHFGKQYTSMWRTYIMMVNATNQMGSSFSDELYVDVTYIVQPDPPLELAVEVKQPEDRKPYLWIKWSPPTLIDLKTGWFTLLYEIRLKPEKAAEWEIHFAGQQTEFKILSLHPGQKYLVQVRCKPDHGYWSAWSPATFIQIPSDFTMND

[2] = target: T2, human PRLR on the cell surface (T47D human breast cancer cells; BAF3-huPRLR cells) (human, UniProt P16471 25-622); assay: flow cytometry on T47D cells
T2 construct: whole, on cells; Used for both T47D (endogenous) and BAF3-huPRLR (stably overexpressing) cells; also called PRLR antigen on the surface of the T47D cell
T2 sequence (looked up): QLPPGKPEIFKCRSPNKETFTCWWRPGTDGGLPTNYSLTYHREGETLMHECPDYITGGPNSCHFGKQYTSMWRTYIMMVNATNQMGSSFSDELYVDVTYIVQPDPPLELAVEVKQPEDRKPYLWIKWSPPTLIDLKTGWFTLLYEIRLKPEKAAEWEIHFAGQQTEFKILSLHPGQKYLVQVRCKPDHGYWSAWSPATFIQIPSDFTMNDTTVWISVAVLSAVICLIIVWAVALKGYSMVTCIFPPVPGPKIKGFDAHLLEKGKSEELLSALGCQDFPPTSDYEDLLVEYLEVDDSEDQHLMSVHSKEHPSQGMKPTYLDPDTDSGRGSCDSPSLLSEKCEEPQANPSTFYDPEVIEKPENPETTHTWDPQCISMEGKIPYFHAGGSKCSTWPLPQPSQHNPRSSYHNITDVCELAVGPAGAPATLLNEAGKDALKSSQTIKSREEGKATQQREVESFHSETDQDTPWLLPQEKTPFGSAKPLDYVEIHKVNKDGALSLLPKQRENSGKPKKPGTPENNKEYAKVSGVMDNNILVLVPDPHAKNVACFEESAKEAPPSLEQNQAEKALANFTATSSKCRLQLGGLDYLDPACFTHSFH
Description: In this experiment, a human mammary ductal carcinoma cell T47D was used as a target cell, and SPGA02-260 was used as a primary antibody. SPGA02-260 was serially diluted from 20 μg/mL in six gradients according to a 6-fold gradient. An antibody diluted with a 100 μL gradient and 100 μL of a T47D cell were incubated for 30 min at room temperature (The cell was suspended in 100 μL of an RPMI-1640 serum-free medium (purchased from Gibco, item No.: 61870036). The maximum working concentration of a monoclonal antibody was 10 μg/mL). The cell was washed twice with PBS to remove unbound SPGA02-260. Then, the cell was incubated with 50 μL of anti-murine fluorescent secondary antibody containing 5 μg/mL Alexa Fluor 488 label (purchased from Thermo and Invitrogen, item No.: A11001) at 4° C. for 40 min under light protection. The cell was washed twice with PBS to remove an unbound secondary antibody. Finally, the cell was resuspended in 100 μL of PBS. The binding affinity of SPGA02-260 to the cells was determined by a flow cytometry (purchased from Beckman, model: CytoFLEX). Data obtained were fitted and analyzed by GraphPad Prism6 software.

[3] = target: T3, mouse PRLR protein (Beijing Sinobiological, item No. 50457-M08H) (mouse, UniProt Q08501 20-229); assay: indirect ELISA, coated mouse PRLR protein
T3 construct: Bought; also called murine-derived PRLR-ECD
T3 sequence (looked up): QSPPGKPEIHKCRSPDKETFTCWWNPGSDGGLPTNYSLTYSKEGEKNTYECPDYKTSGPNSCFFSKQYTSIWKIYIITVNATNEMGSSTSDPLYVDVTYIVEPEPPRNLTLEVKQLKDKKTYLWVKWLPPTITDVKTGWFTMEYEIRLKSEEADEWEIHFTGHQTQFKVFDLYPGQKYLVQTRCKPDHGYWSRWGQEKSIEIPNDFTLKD
Description: A mouse PRLR protein (purchased from Beijing Sinobiological Company, item No. 50457-M08H), i.e., mouse PRLR, was coated in a 96-well ELISA plate according to 0.5 μg/well. The cross-reactivity of SPGA02-ch18, and SPGA02-ch260 to the mouse PRLR was determined. Other specific experimental methods were referred to Embodiment 8.

[4] = target: T4, PRLR-ECD Fibronectin type-III 2 polypeptide 7 (189-208) (human, N-terminal biotin (bio-)); assay: peptide ELISA
T4 peptide: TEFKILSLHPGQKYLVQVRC

[5] = target: T1, recombinant human PRLR-ECD protein …; assay: indirect ELISA, coated human PRLR-ECD 0.5 µg/mL
Description: An indirect enzyme-linked immunosorbent assay was used to determine the binding ability of an murine-derived antibody to human PRLR as follows: diluting a recombinant human PRLR-ECD protein to 0.5 μg/mL with a coating solution (a phosphate coating buffer, pH 7.4), adding a solution to an enzyme-labeled plate with 100 μL/well, and coating the plate at 4° C. overnight. The plate was washed once with PBST. 300 μL/well of blocking solution (1% BSA-PBST) was added. The plate was incubated at 37° C. for 2 h and then washed three times with PBST. The purified antibody was diluted to 1 μg/mL with 1% BSA-PBST. After a solution was diluted with 1:3 gradient, the enzyme-labeled plate was added with 100 μL/well, and incubated at 37° C. for 1 h. The plate was washed with PBST 3 times. A HRP-labeled goat anti-mouse IgG secondary antibody (purchased from Abcam, item No.: ab6789) was added and incubate at 37° C. for 30 min. After the plate was washed 3 times with PBST, residual droplets were patted to be dry as much as possible with a blotting paper. 100 μL of TMB (purchased from KPL, item No.: 52-00-03) was added to each well, placed at room temperature (20±5° C.) and protected from light for 5 min. […] An OD value at 450 nm of an enzyme-labeled instrument was read to analyze the binding ability of the antibody to be tested to a target antigen PRLR-His.

[6] = target: T2, human PRLR on the cell surface (T47D …); assay: cell-based or functional assay

B1: chimeric antibody SPGA02-ch260 (antibody, human IgG1, kappa, V domains shown)
VH: QVQLKESGPGLVAPSQSLSITCTVSGFSLTRNGVSWVRQPPGKGLEWLGIIWGDGSTNYHSALISRLSISKDNSKSQVFLKLNSLQTDDTATYYCAKEGLYYYGRYFDVWGAGTTVTVSS
VL: DIVMTQSHKFMSTSVGDRVSITCKASQDVGSAVAWYQQKPGQSPKVLIYWASTRHTGVPDRFTGSGSGTDFTLTISNVQSEDLADYFCQQYSNYPLTFGGGTKLEIRR
notes: Expressed in Expi293F cells; also called SPGA01-ch260
For B1, the EC50 [1] was 0.0129 µg/mL and 0.09 nM, the EC50 [2] was 0.21 nM and 0.031 µg/mL and the EC50 [3] was 0.297 µg/mL.

B2: murine-derived anti-human PRLR monoclonal antibody SPGA02-260 (antibody, V domains shown)
VH: QVQLKESGPGLVAPSQSLSITCTVSGFSLTRNGVSWVRQPPGKGLEWLGIIWGDGSTNYHSALISRLSISKDNSKSQVFLKLNSLQTDDTATYYCAKEGLYYYGRYFDVWGAGTTVTVSS
VL: DIVMTQSHKFMSTSVGDRVSITCKASQDVGSAVAWYQQKPGQSPKVLIYWASTRHTGVPDRFTGSGSGTDFTLTISNVQSEDLADYFCQQYSNYPLTFGGGTKLEIR
notes: Mouse monoclonal antibody purified from hybridoma supernatant by protein A; also called SPHA02-260
With B2 the binding result [4] was “binds”, the EC50 [2] was 0.026 µg/mL and 0.17 nM and the EC50 [5] was 0.0209 µg/mL and 0.14 nM.

B3: humanized monoclonal antibody SPGA02-hu260 (antibody, human IgG1, kappa, V domains shown)
VH: QVQLQESGPGLVKPSETLSLTCTVSGFSLTRNGVSWIRQPPGKGLEWVGVIWGDGSTNYNSAFMSRVTISVDTSKNQVSLKLSSVTAADTAVYYCAKEGLYYYGRYFDVWGQGTTVTVSS
VL: DIQMTQSPSSLSASVGDRVTITCRASQDVGSALAWYQQKPGKVPKLLIYWASTRHTGVPSRFSGSGSGTDFTLTISSLQPEDVATYYCQQYSNYPLTFGGGTKLEIKR
notes: Expressed in Expi-293F cells
B3 was tested, and the “IC50 of inhibition of growth of BAF3-huPRLR cells (CCK8, 72 h)” value [6] was 8.28 ng/ml and 0.06 nM and the EC50 [1] was 0.00898 µg/mL and 0.06 nM.
